Test results taken from patent publication US20250368744A1 (CONCEPT TO MEDICINE BIOTECH, published 2025).
Where a chain is given by its changes, count along the chain named. Each block holds one binder with its values, some of them ahead of it.

Columns and labels:
human CCR4 = biological target: T1, human CCR4 (human, UniProt P51679 1-360); experiment: FACS, CHO-K1 hCCR4 cells
T1 construct: whole, on cells; also called hCCR4
T1 sequence (looked up): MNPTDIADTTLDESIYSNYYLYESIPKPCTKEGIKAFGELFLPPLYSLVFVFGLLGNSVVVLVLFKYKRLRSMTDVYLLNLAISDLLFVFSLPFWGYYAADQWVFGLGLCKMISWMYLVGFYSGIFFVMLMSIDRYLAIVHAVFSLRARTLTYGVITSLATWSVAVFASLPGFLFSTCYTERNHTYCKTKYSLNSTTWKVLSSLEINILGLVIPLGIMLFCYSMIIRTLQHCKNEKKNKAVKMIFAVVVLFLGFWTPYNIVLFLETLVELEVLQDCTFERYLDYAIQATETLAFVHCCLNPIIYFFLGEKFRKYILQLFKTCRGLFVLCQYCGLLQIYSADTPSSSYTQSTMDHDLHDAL
Experimental: (§1) Briefly, HEK293 hCCR8 cell line, CHO-K1 cyno CCR8 cell line or CHO-K1 hCCR4 cell line was first incubated with 5-fold serially diluted and 8 doses with the above 10 chimeric Abs and hlgG1 control starting from 100 nM at 4° C. for 30 mins. After washing by FACS buffer, PE Goat anti-Human IgG Fc Secondary Antibody (eBioscience™, Invitrogen) was added to each well and incubated at 4° C. for 30 mins. Samples were washed twice with FACS buffer. The mean florescence intensity (MFI) of PE was evaluated by MACSQuant Analyzer 16.

[1] = biological target: T2, human C-C motif chemokine receptor 8 (CCR8) (human, UniProt P51685 1-355); experiment: cell-based or functional assay
T2 sequence (P51685 whole entry): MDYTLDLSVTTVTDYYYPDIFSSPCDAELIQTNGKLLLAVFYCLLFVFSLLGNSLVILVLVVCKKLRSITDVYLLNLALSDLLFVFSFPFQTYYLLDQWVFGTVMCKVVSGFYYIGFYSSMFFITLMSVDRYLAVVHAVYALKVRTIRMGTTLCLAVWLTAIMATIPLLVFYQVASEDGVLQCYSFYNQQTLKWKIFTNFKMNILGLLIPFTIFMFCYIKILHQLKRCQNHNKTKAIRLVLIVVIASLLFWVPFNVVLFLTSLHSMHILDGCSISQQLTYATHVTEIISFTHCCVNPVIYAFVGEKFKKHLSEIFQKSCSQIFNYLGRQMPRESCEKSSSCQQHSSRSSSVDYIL

[2] = biological target: T2, human C-C motif chemokine receptor 8 …; experiment: cell-based or functional assay; remark: listed apart in the source
[3] = biological target: T2, human C-C motif chemokine receptor 8 …; experiment: cell-based or functional assay; remark: listed apart in the source
[4] = biological target: T2, human C-C motif chemokine receptor 8 …; experiment: FACS (MFI-PE) on HEK293 hCCR8 cells
Experimental: as §1

cyno CCR8 = biological target: T3, cyno CCR8 (cynomolgus, UniProt G7NYJ2 1-355); experiment: FACS (MFI-PE) on CHO-K1 cyno CCR8 cells
T3 construct: whole, on cells; also called cynomolgus CCR8 protein
T3 sequence (G7NYJ2 entry or part of it): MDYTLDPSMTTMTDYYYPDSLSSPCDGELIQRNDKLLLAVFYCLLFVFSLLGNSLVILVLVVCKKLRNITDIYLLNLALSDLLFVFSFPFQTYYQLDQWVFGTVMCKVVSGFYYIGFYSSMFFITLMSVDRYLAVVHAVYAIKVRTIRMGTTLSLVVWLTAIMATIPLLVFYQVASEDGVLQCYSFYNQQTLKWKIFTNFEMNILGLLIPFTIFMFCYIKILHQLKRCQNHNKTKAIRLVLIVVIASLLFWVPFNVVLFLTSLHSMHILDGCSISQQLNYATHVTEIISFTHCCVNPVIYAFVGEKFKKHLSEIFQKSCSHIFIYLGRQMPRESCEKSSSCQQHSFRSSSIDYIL
Experimental: as §1

B1: 86D4E12A5 (antibody, V domains shown)
VH: DLQLKESGPGLVKPSQSLSLTCSVTGYSITSGYYWNWIRQLPGNKLEWMGYISFDGSNNYNPSLKTRISITRDTSKNQFFLKLNSVTSEDTATYFCARLRGLLLGHFDVWGTGTTVTVSS
VL: DVQMTQSSSYLSVPLGGRVTITCKASDHINNRLAWYQQKPGNAPRLLISGATKLETGIPSRFRGSGSGKDYTLSIFSLQTEDVATYYCQQYWSTSYTFGGGTKLELR
notes: tested as chimeric mAb
binding result (human CCR4): no binding (tested: 100 nM (highest concentration tested))
IC50, hCCL1-induced migration of BaF3 hCCR8 cells (RLU) [cont'd) C] [1]: 2.67 nM
IC50, hCCL1-induced beta-arrestin recruitment (RLU), CHO-K1 hCCR8 cells [2]: 11.2 nM
IC50 (read off the curve), hCCL1-induced Ca2+ flux (stimulation %), Chem-1 hCCR8 cells [upper graph] [3]: ~2 nM
IC50, hCCL1-induced Ca2+ flux (stimulation %), Chem-1 hCCR8 cells [lower graph] [3]: 12.1 nM
EC50 [4]: 0.17 nM
EC50 (cyno CCR8): 0.122 nM

B2: 99D1-1E11 (antibody, V domains shown)
VH: B1 VH with L41F, F54Y, F95Y, A97V, L99E
VL: B1 VL with V2I, P14A
notes: tested as chimeric mAb
binding result (human CCR4): no binding (tested: 100 nM (highest concentration tested))
EC50 [4]: 0.101 nM
EC50 (cyno CCR8): 0.0942 nM

B3: 101D5G10G4 (antibody, V domains shown)
VH: DLQLKESGPGLVKPSQSLSLTCSVTGYSITSGYYWNWIRQFPGNKLEWMGYISYDGNNNYNPSLKNRISITRDTSKNQFFLNLNSVTTEDTATYYCSRATGLRKAWFAYWGQGTLVTVSA
VL: DIQMTQSSSYLSVSLGGRVTITCKASDHINNWLAWYQQKPGNAPRLLISDTTSLGTGVPSRFRGSGSGKDYTLSITSLQTEDVATYFCQQYWSYPYTFGGGTKLEIR
notes: tested as chimeric mAb
binding result (human CCR4): no binding (tested: 100 nM (highest concentration tested))
IC50, hCCL1-induced beta-arrestin recruitment (RLU), CHO-K1 hCCR8 cells [2]: 96.9 nM
IC50, hCCL1-induced Ca2+ flux (stimulation %), Chem-1 hCCR8 cells [upper graph] [3]: 25.9 nM
EC50 [4]: 0.117 nM
EC50 (cyno CCR8): 0.118 nM

B4: 115C5E3B8 (antibody, V domains shown)
VH: B3 VH with L2V, K5Q, N57Y, N59D, N82K, S97A, A99E, A120G
VL: B3 VL with W32R, T52S, G55E, R63S, S74R, F87Y, S93G, Y94T, R107K
notes: tested as chimeric mAb
binding result (human CCR4): no binding (tested: 100 nM (highest concentration tested))
IC50, hCCL1-induced beta-arrestin recruitment (RLU), CHO-K1 hCCR8 cells [2]: 2.28 nM
IC50, hCCL1-induced Ca2+ flux (stimulation %), Chem-1 hCCR8 cells [upper graph] [3]: 17.8 nM
EC50 [4]: 0.126 nM

Binders with a lower EC50 [4], results first:

IC50, hCCL1-induced migration of BaF3 hCCR8 cells (RLU) [cont'd) C] [1]: 0.721 nM
IC50, hCCL1-induced Ca2+ flux (stimulation %), Chem-1 hCCR8 cells [lower graph] [3]: 1.55 nM
EC50 [4]: 0.0769 nM
B6: 187B5F10 (antibody, V domains shown)
VH: EVQLVGSGGGLVQPKGSLKLSCAASGFNFNTYVMNWVRQAPGKGLEWVARIRTKSNNYATYYADSVKDRFTISRDDSESKLYLQMNNLKTEDTAMYYCVSGTITRLGGGMDYWGQGTSVTVSS
VL: DIVMTQAAPSVPVTPGESVSISCRSSKRLLHSNGNTYLYWFLQRPGQSPQLLIYRMSNLASGVPDRFSGSGSGTAFTLRISRVEAEDVGVYYCMQHLEYPFTFGGGTKLEIK
notes: tested as chimeric mAb
binding result (human CCR4): no binding (tested: 100 nM (highest concentration tested))

IC50, hCCL1-induced beta-arrestin recruitment (RLU), CHO-K1 hCCR8 cells; fitted value, points scatter between about 24000 and 33000 RLU with no clear inhibition [2]: 0.206 nM
IC50, hCCL1-induced Ca2+ flux (stimulation %), Chem-1 hCCR8 cells; fitted value, the curve stays at about 93 to 100 % beside hIgG1 [upper graph] [3]: 22 nM
EC50 [4]: 0.0473 nM
EC50 (cyno CCR8): 0.0273 nM
B5: 84D1-2H3 (antibody, V domains shown)
VH: EVQLQQSGPVLVKPGASVKMSCKASGYTFTDYYVNWVKKSHGKSPEWIGIIKPYNGGTSYNQKFKGKATLTVDKSSSTVYMELNSLTSEDSAVYHCARFAYSRNPYAMDYWGQGTSVTVSS
VL: DVLLTQTPLSLPVSLGDQASISCRSSQSIVHSTGNTYLEWYLQKPGQSPKVLIYKVSTRFSGVPDRFSGSGSGTDFTLKISRVEAEDLGVYYCFQGSHVPPTFGGGTKLEIK
notes: tested as chimeric mAb of the mouse hybridoma clone
binding result (human CCR4): no binding (tested: 100 nM (highest concentration tested))
